These results are taken from patent US20230036041A1, “SORTILIN BINDING CONJUGATE COMPOUNDS, COMPOSITIONS AND USES THEREOF FOR TREATING CANCER” (THERATECHNOLOGIES INC., priority 2019, published 2023).

Non-standard residues stand in square brackets, D forms with d. No end group written: not given here. Nle = CCCC[C@H](N)C(=O)O

The assay concerns the target T1, sortilin (Homo sapiens, UniProt Q99523).
T1 construct: endogenous in cells
T1 sequence (Q99523 78-831): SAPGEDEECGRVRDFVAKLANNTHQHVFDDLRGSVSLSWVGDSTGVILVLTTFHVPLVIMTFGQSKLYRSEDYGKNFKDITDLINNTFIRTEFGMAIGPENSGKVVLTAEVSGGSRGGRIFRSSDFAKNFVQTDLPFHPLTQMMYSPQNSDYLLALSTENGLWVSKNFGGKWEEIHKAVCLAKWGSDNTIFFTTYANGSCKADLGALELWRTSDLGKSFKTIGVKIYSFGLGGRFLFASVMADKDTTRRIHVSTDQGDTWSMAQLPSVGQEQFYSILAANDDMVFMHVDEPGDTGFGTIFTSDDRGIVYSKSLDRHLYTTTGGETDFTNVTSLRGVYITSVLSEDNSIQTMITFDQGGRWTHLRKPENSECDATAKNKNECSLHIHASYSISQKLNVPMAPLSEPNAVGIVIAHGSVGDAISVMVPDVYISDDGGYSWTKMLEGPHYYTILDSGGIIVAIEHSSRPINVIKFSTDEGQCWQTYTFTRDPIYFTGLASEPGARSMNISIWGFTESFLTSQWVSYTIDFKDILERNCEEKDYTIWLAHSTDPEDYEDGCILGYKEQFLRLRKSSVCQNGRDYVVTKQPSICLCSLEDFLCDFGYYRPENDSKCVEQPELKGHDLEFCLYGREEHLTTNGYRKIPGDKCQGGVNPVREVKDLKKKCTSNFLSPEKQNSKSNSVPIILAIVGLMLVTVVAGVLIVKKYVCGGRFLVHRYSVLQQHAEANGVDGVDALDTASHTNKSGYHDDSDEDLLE
Put plainly: uptake of the peptide upon sortilin siRNA. It is filed as cell-based. To be noted: FIG. 6. The procedure: In vitro testing of the TH19P01 peptide and the TH1902 conjugate compound was conducted.

Consider “Acetyl-GVRAKAGVRN(Nle)FKSESY (Ac-GVRAKAGVRN[Nle]FKSESY) [TH19P01]”, for which the “uptake of the peptide” value is recorded as “inhibited upon sortilin siRNA”.
